In paper PMC7261184, “Human REXO2 controls short mitochondrial RNAs generated by mtRNA processing and decay machinery to prevent accumulation of double-stranded RNA” (Nucleic Acids Research, 2020):

Target: the molecule itself
Assay: SEC-MALS; gel filtration coupled with multi-angle light scattering

B1: REXO2, N-terminal-truncated (Δ28aa), wild type (enzyme, human, UniProt Q9Y3B8 29-237, looked up)
chain: GGAAMAAGESMAQRMVWVDLEMTGLDIEKDQIIEMACLITDSDLNILAEGPNLIIKQPDELLDSMSDWCKEHHGKSGLTKAVKESTITLQQAEYEFLSFVRQQTPPGLCPLAGNSVHEDKKFLDKYMPQFMKHLHYRIIDVSTVKELCRRWYPEEYEFAPKKAASHRALDDISESIKELQFYRNNIFKKKIDEKKRKIIENGENEKTVS
notes: human REXO2 (oligoribonuclease, mitochondrial), lacking the N-terminal 28 residues (Δ28aa); Crystallised with an RNA oligonucleotide and Ca2+; also called WT; wild-type REXO2; not shown: 6x His-SUMO, N-terminal, cleaved
stoichiometry N: 2
